± gives the uncertainty stated by the source.
B1: library; numbered along this chain (parent)
chain: MEVVDPQQLGMFTEGELMSVGMDTFIHRIDSTEVIYQPRRKRAKLIGKYLMGDLLGEGSYGKVKEVLDSETLCRRAVKILKKKKLRRIPNGEANVKKEIQLLRRLRHKNVIQLVDVLYNEEKQKMYMVMEYCVCGMQEMLDSVPEKRFPVCQAHGYFCQLIDGLEYLHSQGIVHKDIKPGNLLLTTGGTLKISDLGVAEALHPFAADDTCRTSQGSPAFQPPEIANGLDTFSGFKVDIWSAGVTLYNITTGLYPFEGDNIYKLFENIGKGSYAIPGDCGPPLSDLLKGMLEYEPAKRFSIRQIRQHSWFRKKHPPAEAPVPIPPSPDTKDRWRSMTVVPYLEDLHGADEDEDLFDIEDDIIYTQDFTVPGQVPEEEASHNGQRRGLPKAVCMNGTEAAQLSTKSRAEGRAPNPARKACSASSKIRRLSACKQQ

Variants of: B1
Experiment: STK11 functional score (HeLa growth suppression), rescaled enrichment; synonymous median = 1, nonsense median = 0 (normalised score)
Details: with HeLa; variant type: missense
Procedure: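 Deep mutational scan (TileSeq/POPCode codon randomisation) of full-length codon-optimised STK11 cDNA integrated at a Bxb1 landing pad (AAVS1) in HeLa cells. Restoring functional STK11 suppresses HeLa proliferation. Variant frequencies were measured by NGS before and after about two weeks of growth. The error-corrected enrichment log-ratio was rescaled so that synonymous median = 1 and nonsense median = 0, scores above 1 were compressed, and codon-level and three biological replicate scores were combined; error is the bootstrapped standard error. Scale: synonymous median = 1, nonsense median = 0; below 0.5 = damaging.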
Work on G187S yielded an STK11 functional score of 1.67 ± 0.44. Work on T402G yielded an STK11 functional score of 1.13 ± 0.21. V34R was tested, and the STK11 functional score was 0.822 ± 0.17. L195I gave an STK11 functional score of 1.44 ± 0.26. Variant G10V has an STK11 functional score of 0.971 ± 0.18. Work on G10C yielded an STK11 functional score of 1.4 ± 0.19. With E92V the STK11 functional score was 1.02 ± 0.09. E317D was tested, and the STK11 functional score was 1.57 ± 0.34. P6C was tested, and the STK11 functional score was 1.1 ± 0.49. P6R showed an STK11 functional score of 1.29 ± 0.12. I46R showed an STK11 functional score of 0.979 ± 0.36. For F298W, the STK11 functional score was 0.876 ± 0.092. Y156W gave an STK11 functional score of 0.28 ± 0.076. With Y156V the STK11 functional score was 1.06 ± 0.36. E65D was tested, and the STK11 functional score was 1.34 ± 0.37. For E65M, the STK11 functional score was 0.457 ± 0.078. For Q364E, the STK11 functional score was 0.253 ± 0.34. For Q364L, the STK11 functional score was 1.33 ± 0.24. A429C gave an STK11 functional score of 1.62 ± 0.14. With P222E the STK11 functional score was 0.0466 ± 0.58. R301V gave an STK11 functional score of 1.62 ± 0.17. Work on V66E yielded an STK11 functional score of 0.0829 ± 0.36. Work on V66S yielded an STK11 functional score of 0.975 ± 0.13. In the case of N181K, the STK11 functional score is reported as -0.18 ± 0.14. For N181A, the STK11 functional score was 0.0629 ± 0.078. For P294L, the STK11 functional score was 0.297 ± 0.13. In the case of A295I, the STK11 functional score is reported as 1.35 ± 0.48. E223K gave an STK11 functional score of 0.308 ± 0.41. V95H was tested, and the STK11 functional score was 1.64 ± 0.19. Work on V95C yielded an STK11 functional score of 0.913 ± 0.28. Variant D162S has an STK11 functional score of 1.26 ± 0.13. Q37R gave an STK11 functional score of 1.34 ± 0.29. P369V gave an STK11 functional score of 1.21 ± 0.15. Work on P369H yielded an STK11 functional score of 0.727 ± 0.16. In the case of G15W, the STK11 functional score is reported as 0.148 ± 0.38. I303F showed an STK11 functional score of 0.372 ± 0.088. Work on L113G yielded an STK11 functional score of 0.252 ± 0.13. With S19E the STK11 functional score was 1.45 ± 0.34. S19K showed an STK11 functional score of 1.53 ± 0.39. Variant S307R has an STK11 functional score of 0.948 ± 0.22. In the case of S307L, the STK11 functional score is reported as 1.47 ± 0.1. K108S gave an STK11 functional score of 0.866 ± 0.22. For Q112V, the STK11 functional score was 1.01 ± 0.1. Variant Q112I has an STK11 functional score of 1.52 ± 0.19. In the case of L50D, the STK11 functional score is reported as 1.39 ± 0.39. K96F gave an STK11 functional score of 0.801 ± 0.17. Work on N226R yielded an STK11 functional score of 1.51 ± 0.2. Variant F309G has an STK11 functional score of -0.12 ± 0.08. Work on F309I yielded an STK11 functional score of 1.38 ± 0.25. With E120M the STK11 functional score was 1.11 ± 0.11. K262H showed an STK11 functional score of 1.52 ± 0.42. Work on K175Q yielded an STK11 functional score of 1.19 ± 0.2. With K175A the STK11 functional score was 0.904 ± 0.14. With D343I the STK11 functional score was 1.57 ± 0.18. D343A showed an STK11 functional score of 1.47 ± 0.29. Work on D343M yielded an STK11 functional score of 1.57 ± 0.2. With D343C the STK11 functional score was 1.44 ± 0.35. G52A was tested, and the STK11 functional score was 0.893 ± 0.16. M127D gave an STK11 functional score of 0.289 ± 0.08. M127S gave an STK11 functional score of 0.857 ± 0.15. Work on Q170V yielded an STK11 functional score of 1.26 ± 0.37. Q371R gave an STK11 functional score of 1.55 ± 0.15. R383L was tested, and the STK11 functional score was 1.42 ± 0.25. C132S showed an STK11 functional score of 0.556 ± 0.09. In the case of E374F, the STK11 functional score is reported as 1.33 ± 0.3. E374L showed an STK11 functional score of 1.2 ± 0.38. Work on R103P yielded an STK11 functional score of 0.985 ± 0.18. Variant R304G has an STK11 functional score of 1.24 ± 0.36. For A205G, the STK11 functional score was 0.712 ± 0.3. In the case of L45C, the STK11 functional score is reported as 1.08 ± 0.4. With Y246R the STK11 functional score was 0.128 ± 0.28. Work on Y246T yielded an STK11 functional score of 0.982 ± 0.41. Work on Y246C yielded an STK11 functional score of 0.451 ± 0.12. H345C gave an STK11 functional score of 1.2 ± 0.49. E256Q gave an STK11 functional score of 1.47 ± 0.56. Work on M125L yielded an STK11 functional score of 1 ± 0.14. K191V showed an STK11 functional score of 1.19 ± 0.29. For I29S, the STK11 functional score was 1.32 ± 0.17. In the case of R39C, the STK11 functional score is reported as 0.223 ± 0.2. In the case of R39N, the STK11 functional score is reported as 0.65 ± 0.66. I267N showed an STK11 functional score of 0.995 ± 0.36. Variant L286Q has an STK11 functional score of 0.0782 ± 0.082. R409G was tested, and the STK11 functional score was 1.25 ± 0.32. Variant R409C has an STK11 functional score of 1.28 ± 0.46. K235S was tested, and the STK11 functional score was 1.67 ± 0.14. K235T was tested, and the STK11 functional score was 0.534 ± 0.21. Variant D355Q has an STK11 functional score of 1.28 ± 0.16. For D355L, the STK11 functional score was 1.58 ± 0.14. Variant K124H has an STK11 functional score of 1.3 ± 0.16. K124L showed an STK11 functional score of 0.951 ± 0.13. With E57T the STK11 functional score was 1.69 ± 0.29. Variant D359I has an STK11 functional score of 0.856 ± 0.075. D352A showed an STK11 functional score of 0.984 ± 0.58. G242T gave an STK11 functional score of -0.128 ± 0.097. Y272G was tested, and the STK11 functional score was 1.2 ± 0.21. With I172G the STK11 functional score was 0.806 ± 0.26. Variant P326E has an STK11 functional score of 1.57 ± 0.26. With P326G the STK11 functional score was 1.52 ± 0.15. In the case of P326C, the STK11 functional score is reported as 1.34 ± 0.39. Work on P326L yielded an STK11 functional score of 1.34 ± 0.16. In the case of P326H, the STK11 functional score is reported as 0.87 ± 0.51. In the case of Q152P, the STK11 functional score is reported as 0.0642 ± 0.62. For E121T, the STK11 functional score was 1.13 ± 0.36. In the case of E121F, the STK11 functional score is reported as 0.824 ± 0.14. L55Q was tested, and the STK11 functional score was 1.59 ± 0.43. L55A gave an STK11 functional score of 0.122 ± 0.29. With S31L the STK11 functional score was 1.02 ± 0.091. Variant V3P has an STK11 functional score of 1.69 ± 0.37. K329N showed an STK11 functional score of 1.36 ± 0.49. K329S gave an STK11 functional score of 0.673 ± 0.35. With K329Y the STK11 functional score was 1.15 ± 0.096. Work on K97Q yielded an STK11 functional score of 0.688 ± 0.72. Work on K97L yielded an STK11 functional score of 0.76 ± 0.24. In the case of Q382I, the STK11 functional score is reported as 1.31 ± 0.26. Q382V gave an STK11 functional score of 1.12 ± 0.25. H313W showed an STK11 functional score of 1.05 ± 0.35. A76S gave an STK11 functional score of 1.12 ± 0.2. L282R gave an STK11 functional score of 0.128 ± 0.1. For L282K, the STK11 functional score was 0.565 ± 0.1. Variant G279A has an STK11 functional score of 0.991 ± 0.39. Work on V197R yielded an STK11 functional score of 1 ± 0.12. V197W gave an STK11 functional score of 1.25 ± 0.19. Variant F148W has an STK11 functional score of 0.336 ± 0.079. For F148E, the STK11 functional score was 0.147 ± 0.17. F148S gave an STK11 functional score of -0.139 ± 0.082. I26M gave an STK11 functional score of 1.63 ± 0.33. L9A showed an STK11 functional score of 1.28 ± 0.12. In the case of L9S, the STK11 functional score is reported as 1.37 ± 0.19. Work on G155A yielded an STK11 functional score of 1.27 ± 0.57. Work on L252W yielded an STK11 functional score of 1.42 ± 0.17. Variant N90K has an STK11 functional score of -0.0122 ± 0.3. In the case of T250P, the STK11 functional score is reported as -0.224 ± 0.1. Variant H306Y has an STK11 functional score of 0.195 ± 0.17. H306E was tested, and the STK11 functional score was 1.19 ± 0.38. In the case of G180A, the STK11 functional score is reported as 1.34 ± 0.32. For G180N, the STK11 functional score was 1.39 ± 0.47. G180V was tested, and the STK11 functional score was 0.816 ± 0.089. G180C gave an STK11 functional score of 1.09 ± 0.31. V337L was tested, and the STK11 functional score was 0.924 ± 0.13. In the case of A200I, the STK11 functional score is reported as 1.31 ± 0.23. For Q7L, the STK11 functional score was 1.25 ± 0.13. For M22H, the STK11 functional score was 1.67 ± 0.21. With H107S the STK11 functional score was 0.803 ± 0.17. In the case of H107V, the STK11 functional score is reported as 0.138 ± 0.077. With H168V the STK11 functional score was 0.473 ± 0.13. V110A gave an STK11 functional score of 0.184 ± 0.078. For V110W, the STK11 functional score was 0.328 ± 0.38. Variant P321A has an STK11 functional score of 0.987 ± 0.33. In the case of H202F, the STK11 functional score is reported as 0.754 ± 0.15. I224H showed an STK11 functional score of 1.46 ± 0.41. With S378G the STK11 functional score was 0.914 ± 0.31. With S378C the STK11 functional score was 1.42 ± 0.11. A389Y gave an STK11 functional score of 1.15 ± 0.53. A389T showed an STK11 functional score of 1.25 ± 0.3. For Q220S, the STK11 functional score was 1.21 ± 0.13. For Q220E, the STK11 functional score was 0.51 ± 0.44. P281G gave an STK11 functional score of 0.787 ± 0.18. In the case of P281W, the STK11 functional score is reported as 0.551 ± 0.072. With S421L the STK11 functional score was 1.62 ± 0.27. Work on T209F yielded an STK11 functional score of 0.568 ± 0.088. For D350L, the STK11 functional score was 1.6 ± 0.16. Variant D141P has an STK11 functional score of -0.241 ± 0.11. P411N was tested, and the STK11 functional score was 1.55 ± 0.18. For P411I, the STK11 functional score was 1.55 ± 0.15. E199S was tested, and the STK11 functional score was 1.21 ± 0.18. D207E gave an STK11 functional score of 1.48 ± 0.51. In the case of A218P, the STK11 functional score is reported as 0.529 ± 0.093.
